Experimental data: patent US20240327505A1

Columns and labels:
[1] = biological target: SARS-CoV-1 spike protein on pseudovirus (SARS-CoV-1) (UniProt P59594); test: cell-based or functional assay
[2] = biological target: SARS-CoV-2 Wuhan-1 full-length Spike protein on pseudovirus (SARS-CoV-2) (UniProt P0DTC2); test: cell-based or functional assay
[3] = biological target: SARS-CoV-2 spike S1 protein (SARS-CoV-2) (UniProt P0DTC2)
[4] = biological target: SARS-CoV-2 spike receptor-binding domain (RBD) (SARS-CoV-2) (UniProt P0DTC2)
[5] = biological target: SARS-CoV-2 spike protein on fully infectious (replication-competent) SARS-CoV-2 virus (SARS-CoV-2) (UniProt P0DTC2); test: cell-based or functional assay
[6] = biological target: SARS-CoV-2 Spike (S) trimer (SARS-CoV-2) (UniProt P0DTC2); test: ELISA on coated S trimer, 1:50
[7] = biological target: SARS-CoV-2 Spike (S) trimer (SARS-CoV-2) (UniProt P0DTC2); test: SPR binning (Carterra LSA), antibody amine-coupled to the chip as ligand

## Anti-Nucleocapsid (Neg Control) (antibody)
[1]
  Pseudovirus Neturalization: > 50 µg/mL
[2]
  Pseudovirus Neturalization: > 50 µg/mL

## CA-1 (AB-009265) (antibody)
[3]
  Kd: 43.6 nM
  Response: 0.27 nm
  koff: 0.0127 s⁻¹
  kon: 291000 M⁻¹ s⁻¹
[4]
  Kd: 5.72 nM
  Response: 0.53 nm
  koff: 0.000681 s⁻¹
  kon: 119000 M⁻¹ s⁻¹
[1]
  Pseudovirus Neturalization: > 50 µg/mL
[2]
  Pseudovirus Neturalization: 0.266 µg/mL
[5]
  Neutralization (Infectious virus; (µg/mL)): 2.46 µg/mL
[6]
  OD 450 nm: 2.74 OD

## REGN10987 | Imdevimab (AB-010157) (antibody)
[1]
  Pseudovirus Neturalization: > 50 µg/mL

## LY-CoV555 | Bamlanivimab (AB-010160) (antibody)
[1]
  Pseudovirus Neturalization: > 50 µg/mL

## CR3022 (AB-009073) (antibody)
[1]
  Pseudovirus Neturalization: 2.61 µg/mL
[2]
  Pseudovirus Neturalization: > 50 µg/mL
[5]
  Neutralization (Infectious virus; (µg/mL)): > 50 µg/mL
[7]
  response as ligand (RU): < 20 RU

## REGN10933 | Casirivimab (AB-010156) (antibody)
[1]
  Pseudovirus Neturalization: > 50 µg/mL

## COVA1-21 (AB-010159) (antibody)
[1]
  Pseudovirus Neturalization: > 50 µg/mL
[2]
  Pseudovirus Neturalization: 21 µg/mL

## CB-6 (AB-009264) (antibody)
[3]
  Kd: 27.7 nM
  Response: 0.361 nm
  koff: 0.0107 s⁻¹
  kon: 386000 M⁻¹ s⁻¹
[4]
  Kd: 4.77 nM
  Response: 0.58 nm
  koff: 0.000844 s⁻¹
  kon: 177000 M⁻¹ s⁻¹
[1]
  Pseudovirus Neturalization: > 50 µg/mL
[2]
  Pseudovirus Neturalization: 0.012 µg/mL
[5]
  Neutralization (Infectious virus; (µg/mL)): 0.13 µg/mL
[6]
  OD 450 nm: 2.81 OD
